The values below come from patent US20140178390A1 (published 2014).

In the test the target is Human CXCR7 (UniProt P25106 1-362). Briefly: FACS competition with biotinylated SDF-1.
Human CXCR7, sequence (P25106 whole entry): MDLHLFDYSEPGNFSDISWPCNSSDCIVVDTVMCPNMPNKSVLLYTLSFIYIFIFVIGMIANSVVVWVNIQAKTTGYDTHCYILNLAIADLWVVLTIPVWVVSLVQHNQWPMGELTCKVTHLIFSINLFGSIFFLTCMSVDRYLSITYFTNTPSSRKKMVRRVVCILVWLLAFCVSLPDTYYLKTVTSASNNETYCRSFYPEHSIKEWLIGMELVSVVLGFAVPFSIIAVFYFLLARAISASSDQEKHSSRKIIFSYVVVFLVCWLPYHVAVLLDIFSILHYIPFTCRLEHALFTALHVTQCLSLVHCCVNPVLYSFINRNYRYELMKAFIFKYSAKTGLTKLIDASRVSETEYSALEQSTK

B1: Nanobody 07C03 with Tag-1 (VHH)
VHH: EVQLVESGGGLVQAGESLTLSCAASGRTLSAYIMGWFRQAPGKEREFVAGIWSGGYTHLADSAKGRFSISRDNAKNTVYLQMNGLKPEDTAVYYCAAGLRGRQYSNWGQGTQVTVSS
The molecule B1 returned an IC50 of 7.77 nM.
